Laboratory results published in patent US20200283521A1 (GRANULAR THERAPEUTICS, published 2020).

How the values were obtained:
Experiment in all cases: cell array, transfected fixed HEK293 cells
EDN2 = target: T1, EDN2 (human, UniProt P20800)
T1 construct: expressed in transfected HEK293 cells
T1 sequence (looked up): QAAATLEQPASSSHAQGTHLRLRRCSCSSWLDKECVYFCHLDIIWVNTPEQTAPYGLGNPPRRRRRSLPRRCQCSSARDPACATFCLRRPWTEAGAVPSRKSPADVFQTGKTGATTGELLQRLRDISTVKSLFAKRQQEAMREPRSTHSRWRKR
Protocol: (§1) Transfection of all plasmids was confirmed by screening for the co-encoded marker ZS green (FIG. 13A).
(§2) Primary hits (duplicate spots) were identified by analysing fluorescence (AF647 and ZsGreenl) on ImageQuant. Vectors encoding all hits were sequenced to confirm their correct identities. […] Slides were analysed as above.

TGM2 = target: T2, TGM2 (human, UniProt P21980)
T2 construct: expressed in transfected HEK293 cells
T2 sequence (looked up): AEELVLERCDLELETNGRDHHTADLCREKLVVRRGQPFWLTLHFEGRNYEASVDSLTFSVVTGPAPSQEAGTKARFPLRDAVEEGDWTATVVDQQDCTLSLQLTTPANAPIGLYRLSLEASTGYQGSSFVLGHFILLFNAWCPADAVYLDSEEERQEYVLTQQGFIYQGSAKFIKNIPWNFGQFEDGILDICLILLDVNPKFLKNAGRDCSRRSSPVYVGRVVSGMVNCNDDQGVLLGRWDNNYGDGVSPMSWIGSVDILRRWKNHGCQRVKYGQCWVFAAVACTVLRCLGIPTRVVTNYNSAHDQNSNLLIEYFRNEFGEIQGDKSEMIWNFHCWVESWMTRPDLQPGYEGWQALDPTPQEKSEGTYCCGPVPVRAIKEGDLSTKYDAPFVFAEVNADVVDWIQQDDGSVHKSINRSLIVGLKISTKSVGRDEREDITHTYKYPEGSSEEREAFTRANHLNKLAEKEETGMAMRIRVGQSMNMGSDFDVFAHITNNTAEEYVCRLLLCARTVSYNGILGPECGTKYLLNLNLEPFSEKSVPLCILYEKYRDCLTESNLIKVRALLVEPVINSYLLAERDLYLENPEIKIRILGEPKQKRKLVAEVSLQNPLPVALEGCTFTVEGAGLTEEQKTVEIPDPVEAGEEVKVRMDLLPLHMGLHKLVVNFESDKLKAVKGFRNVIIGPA
Protocol: as §1, §2

MS4A1 = target: T3, MS4A1 (human, UniProt P11836)
T3 construct: expressed in transfected HEK293 cells; also called CD20
T3 sequence (looked up): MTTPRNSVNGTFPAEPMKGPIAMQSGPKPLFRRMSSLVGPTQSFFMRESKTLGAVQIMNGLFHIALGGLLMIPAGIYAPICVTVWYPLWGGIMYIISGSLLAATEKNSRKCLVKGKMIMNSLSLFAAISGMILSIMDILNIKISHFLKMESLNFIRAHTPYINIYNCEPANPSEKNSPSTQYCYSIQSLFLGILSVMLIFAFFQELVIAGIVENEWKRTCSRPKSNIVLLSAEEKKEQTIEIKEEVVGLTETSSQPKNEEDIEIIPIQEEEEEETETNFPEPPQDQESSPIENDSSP
Protocol: as §1, §2

ANXA6 = target: T4, ANXA6 (human, UniProt P08133)
T4 construct: expressed in transfected HEK293 cells
T4 sequence (looked up): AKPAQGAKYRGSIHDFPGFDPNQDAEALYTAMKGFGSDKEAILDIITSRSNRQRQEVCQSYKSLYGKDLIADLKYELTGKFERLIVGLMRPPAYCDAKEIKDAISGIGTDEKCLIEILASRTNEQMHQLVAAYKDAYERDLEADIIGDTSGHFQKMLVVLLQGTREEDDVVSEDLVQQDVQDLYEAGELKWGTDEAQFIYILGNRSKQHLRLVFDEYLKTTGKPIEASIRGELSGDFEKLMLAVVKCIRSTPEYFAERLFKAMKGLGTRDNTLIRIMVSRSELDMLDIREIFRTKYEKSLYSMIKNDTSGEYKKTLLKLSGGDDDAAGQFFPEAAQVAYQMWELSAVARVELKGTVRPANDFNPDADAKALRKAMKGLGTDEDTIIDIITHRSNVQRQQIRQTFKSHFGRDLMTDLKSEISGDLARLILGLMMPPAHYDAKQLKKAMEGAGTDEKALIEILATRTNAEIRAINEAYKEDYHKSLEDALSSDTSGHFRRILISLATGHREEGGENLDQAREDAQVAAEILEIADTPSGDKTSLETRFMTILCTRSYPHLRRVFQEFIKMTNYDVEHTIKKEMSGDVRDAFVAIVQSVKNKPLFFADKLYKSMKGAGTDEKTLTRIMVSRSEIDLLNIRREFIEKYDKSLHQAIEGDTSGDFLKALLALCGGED
Protocol: as §1, §2

EDN1 = target: T5, EDN1 (human, UniProt P05305)
T5 construct: expressed in transfected HEK293 cells
T5 sequence (looked up): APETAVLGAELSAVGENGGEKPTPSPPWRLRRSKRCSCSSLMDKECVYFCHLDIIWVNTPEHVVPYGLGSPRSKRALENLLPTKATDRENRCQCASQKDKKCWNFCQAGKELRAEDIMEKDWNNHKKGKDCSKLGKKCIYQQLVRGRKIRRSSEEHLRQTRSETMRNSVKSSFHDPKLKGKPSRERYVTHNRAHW
Protocol: as §1, §2

DES = target: T6, DES (human, UniProt P17661)
T6 construct: expressed in transfected HEK293 cells
Protocol: as §1, §2

COL23A1 = target: T7, COL23A1 (human, UniProt Q86Y22)
T7 construct: expressed in transfected HEK293 cells
Protocol: as §1, §2

PPT1 = target: T8, PPT1 (human, UniProt P50897)
T8 construct: expressed in transfected HEK293 cells
T8 sequence (looked up): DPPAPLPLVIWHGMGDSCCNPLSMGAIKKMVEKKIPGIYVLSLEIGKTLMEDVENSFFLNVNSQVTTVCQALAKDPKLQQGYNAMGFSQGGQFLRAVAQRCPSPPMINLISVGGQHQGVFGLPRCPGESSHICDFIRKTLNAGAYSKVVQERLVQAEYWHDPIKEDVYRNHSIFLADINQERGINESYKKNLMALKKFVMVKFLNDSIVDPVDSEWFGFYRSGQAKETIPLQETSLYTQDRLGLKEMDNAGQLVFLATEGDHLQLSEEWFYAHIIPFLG
Protocol: as §1, §2

T6 sequence (P17661 2-470 limits assumed): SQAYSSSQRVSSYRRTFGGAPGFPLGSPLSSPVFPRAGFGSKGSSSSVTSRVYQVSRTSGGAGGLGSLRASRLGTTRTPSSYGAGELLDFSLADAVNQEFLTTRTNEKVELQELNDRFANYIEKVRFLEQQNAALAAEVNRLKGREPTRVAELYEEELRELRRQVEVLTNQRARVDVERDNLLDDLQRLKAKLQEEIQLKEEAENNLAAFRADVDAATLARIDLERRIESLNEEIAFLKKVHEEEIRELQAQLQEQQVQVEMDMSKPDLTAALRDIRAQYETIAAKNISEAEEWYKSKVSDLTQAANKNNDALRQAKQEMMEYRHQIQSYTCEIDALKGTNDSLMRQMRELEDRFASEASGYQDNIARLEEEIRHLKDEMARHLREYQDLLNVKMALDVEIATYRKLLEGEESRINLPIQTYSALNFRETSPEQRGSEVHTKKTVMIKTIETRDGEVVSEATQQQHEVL
T7 sequence (Q86Y22 whole entry): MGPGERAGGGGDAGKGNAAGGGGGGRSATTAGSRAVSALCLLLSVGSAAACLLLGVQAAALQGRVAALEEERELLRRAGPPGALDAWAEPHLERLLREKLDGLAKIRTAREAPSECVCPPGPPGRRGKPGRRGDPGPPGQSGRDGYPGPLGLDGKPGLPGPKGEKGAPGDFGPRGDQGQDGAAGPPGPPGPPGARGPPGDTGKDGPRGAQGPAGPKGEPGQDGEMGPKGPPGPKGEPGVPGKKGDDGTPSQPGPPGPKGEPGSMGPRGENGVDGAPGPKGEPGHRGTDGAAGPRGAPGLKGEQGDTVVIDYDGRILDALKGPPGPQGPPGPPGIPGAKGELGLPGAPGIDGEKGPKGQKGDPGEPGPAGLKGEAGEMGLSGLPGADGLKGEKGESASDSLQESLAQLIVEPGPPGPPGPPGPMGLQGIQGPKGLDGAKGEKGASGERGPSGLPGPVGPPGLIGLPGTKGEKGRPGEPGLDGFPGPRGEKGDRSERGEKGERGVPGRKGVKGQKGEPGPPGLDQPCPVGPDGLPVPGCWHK

binding result (EDN2): no binding (tested: 2 µg/ml)
binding result (TGM2): no binding (tested: 2 µg/ml)
binding result (MS4A1): no binding (tested: 2 µg/ml)
binding result (ANXA6): no binding (tested: 2 µg/ml)
binding result (EDN1): no binding (tested: 2 µg/ml)
binding result (DES): no binding (tested: 2 µg/ml)
binding result (COL23A1): no binding (tested: 2 µg/ml)
binding result (PPT1): no binding (tested: 2 µg/ml)
B1: humanized h37M, human IgG1 (antibody, V domains shown)
VH: QVQLVQSGAEVKKPGASVKLSCKASGYTFTDYYINWVRQAPGKGLEWIARIYPGSGNTYYNEKFKGRATLTADKSTSTAYMQLSSLRSEDTAVYFCARGVYYFDYWGQGTTVTVSS
VL: DIVMTQSPSSLSASVGDRVTITCKASQNVRTNVAWYQQKPGKAPKALIYSASYRYSGVPDRFTGSGSGTDFTLTISSLQPEDFADYFCQQYNSYPRTFGGGTKVEIK
notes: human IgG1; terbium-labelled as the tracer of the HTRF assays; also called C-KIT-h37M; h37M-IgG1
